Patent US20210030857A1 (NGM BIOPHARMACEUTICALS, published 2021)

T1: human beta klotho expressed on cells (human, UniProt Q86Z14 1-1044)
T1 construct: also called HuKLB overexpressing cells; Human KLB
T1 sequence: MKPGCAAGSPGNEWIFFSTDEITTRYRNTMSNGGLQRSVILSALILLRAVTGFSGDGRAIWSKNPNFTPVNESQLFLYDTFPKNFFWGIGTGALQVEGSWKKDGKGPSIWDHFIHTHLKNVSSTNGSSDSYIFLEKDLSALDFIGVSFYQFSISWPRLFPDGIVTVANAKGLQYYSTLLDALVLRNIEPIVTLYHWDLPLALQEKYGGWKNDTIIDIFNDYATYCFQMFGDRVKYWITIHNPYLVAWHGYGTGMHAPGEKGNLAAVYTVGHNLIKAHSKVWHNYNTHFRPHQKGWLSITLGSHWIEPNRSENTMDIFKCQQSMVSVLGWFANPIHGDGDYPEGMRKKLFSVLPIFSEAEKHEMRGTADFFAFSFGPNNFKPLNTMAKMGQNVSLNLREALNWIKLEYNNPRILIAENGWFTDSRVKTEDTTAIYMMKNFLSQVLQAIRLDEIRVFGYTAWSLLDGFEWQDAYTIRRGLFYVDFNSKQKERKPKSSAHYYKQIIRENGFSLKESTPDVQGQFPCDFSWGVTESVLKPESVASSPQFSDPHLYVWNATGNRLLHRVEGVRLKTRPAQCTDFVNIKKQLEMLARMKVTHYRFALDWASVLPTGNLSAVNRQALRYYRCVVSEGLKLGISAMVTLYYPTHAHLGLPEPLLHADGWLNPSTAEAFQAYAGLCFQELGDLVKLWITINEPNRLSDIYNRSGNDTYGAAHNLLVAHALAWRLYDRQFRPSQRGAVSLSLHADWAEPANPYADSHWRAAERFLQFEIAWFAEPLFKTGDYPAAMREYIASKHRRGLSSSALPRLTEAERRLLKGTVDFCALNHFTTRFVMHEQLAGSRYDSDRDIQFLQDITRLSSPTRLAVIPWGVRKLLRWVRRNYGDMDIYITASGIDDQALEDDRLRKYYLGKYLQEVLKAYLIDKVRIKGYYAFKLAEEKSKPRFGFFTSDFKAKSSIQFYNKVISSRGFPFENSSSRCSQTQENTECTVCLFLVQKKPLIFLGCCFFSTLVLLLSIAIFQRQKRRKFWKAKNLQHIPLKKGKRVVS

T2: cynomolgus monkey beta klotho protein (soluble, used in Biacore) (cynomolgus monkey (Macaca fascicularis), UniProt Q86Z14 53-996 (human entry), limits assumed)
T2 construct: Protein in solution; also called Cyno KLB; cyKLB
T2 chain: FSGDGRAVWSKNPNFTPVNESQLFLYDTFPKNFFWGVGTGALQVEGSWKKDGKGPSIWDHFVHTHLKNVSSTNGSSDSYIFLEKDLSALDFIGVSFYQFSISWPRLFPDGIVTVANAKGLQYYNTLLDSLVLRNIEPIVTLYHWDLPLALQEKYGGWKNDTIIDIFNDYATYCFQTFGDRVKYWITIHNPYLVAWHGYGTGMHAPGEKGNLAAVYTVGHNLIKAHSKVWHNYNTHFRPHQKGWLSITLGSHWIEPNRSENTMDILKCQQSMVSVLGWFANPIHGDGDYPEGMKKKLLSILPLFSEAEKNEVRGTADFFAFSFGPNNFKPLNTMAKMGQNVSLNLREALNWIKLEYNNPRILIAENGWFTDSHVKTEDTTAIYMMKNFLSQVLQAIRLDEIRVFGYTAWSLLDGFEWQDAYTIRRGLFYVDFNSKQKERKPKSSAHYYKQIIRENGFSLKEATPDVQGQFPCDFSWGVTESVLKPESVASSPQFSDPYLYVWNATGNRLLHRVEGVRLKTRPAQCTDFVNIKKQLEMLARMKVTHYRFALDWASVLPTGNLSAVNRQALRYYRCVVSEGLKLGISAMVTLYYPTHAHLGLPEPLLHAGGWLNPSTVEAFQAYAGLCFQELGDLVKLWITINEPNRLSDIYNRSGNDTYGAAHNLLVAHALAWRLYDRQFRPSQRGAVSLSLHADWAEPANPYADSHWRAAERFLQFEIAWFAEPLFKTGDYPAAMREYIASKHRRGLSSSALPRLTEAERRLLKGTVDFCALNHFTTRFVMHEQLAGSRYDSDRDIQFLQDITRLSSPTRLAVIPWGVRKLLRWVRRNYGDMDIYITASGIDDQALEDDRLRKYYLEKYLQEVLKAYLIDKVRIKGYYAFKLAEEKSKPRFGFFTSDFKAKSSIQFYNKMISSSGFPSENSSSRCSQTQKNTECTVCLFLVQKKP


Key:
[1] = biological target: T1, human beta klotho expressed on cells; experiment: FACS competition on HuKLB-overexpressing cells; row antibody unlabelled; competitor 3I13-Alexa488 (labelled, EC10); MFI of the label
Protocol: For example, for competition binding assays by FACS analysis, antibody standards were prepared that were conjugated to a fluorochrome using either A488 or A647 antibody labeling kit (Invitrogen) following manufacturer's instructions. A dose titration of the conjugated antibody standard was evaluated using HuKLB overexpressing cells. The plateau of the maximal signal of antibody binding is EC=100 and the background signal is EC=0. Competition by FACS against the fluorochrome labeled antibody was performed by pre-incubating HuKLB overexpressing cells with hybridoma supernatants for 15 minutes at room temperature. Without washing, an EC=10 concentration of A488 or A647 labelled antibody standard was added. EC=10 for an individual antibody was determined by 10% of signal using the maximum signal as (100%) and background signal as (0%). After 30 minutes at 4° C., cells are washed and analyzed by FACS. […] A partial competing antibody is one sample that show signal between labelled antibody alone and background. Antibodies that show complete competition against the same standard antibody are considered to be in the same bin.
Representative results are shown in Table 12 below reported as mean fluorescence intensity (MFI).

[2] = biological target: cynomolgus beta klotho / human FGFR1c receptor complex on cells (cynomolgus monkey (Macaca …)); experiment: cell-based or functional assay
[3] = biological target: human beta klotho / human FGFR1c receptor complex on cells (human, UniProt Q86Z14 1-1044; P11362 22-822); experiment: cell-based or functional assay
[4] = biological target: T2, cynomolgus monkey beta klotho protein …; experiment: Biacore SPR, antibody captured on anti-mouse Fc, KLB as analyte (1.56-25 nM), 25 C
Protocol: Binding affinity measurements were also made in additional Biacore based assays. For example, equilibrium dissociation constant (KD) measurements were carried out with purified antibodies to evaluate their binding to human beta klotho and cyno beta klotho. As mentioned above, anti-mouse Fc antibody (Sigma-Aldrich, St. Louis, Mo.) was immobilized on all four flow cells of a CM5 chip using amine coupling reagents (GE Healthcare LifeSciences, Piscataway, N.J.). Purified antibodies were captured (˜100 RUs) on flow cells 2, 3 and 4 using flow cell 1 as a reference. This was followed by injection of different concentrations of human or cyno beta klotho (1.56 nM to 25 nM, two-fold dilutions in PBS-P buffer) at a flow rate of 70 μL/min and the binding kinetics were evaluated at 25° C.

Chain of cynomolgus beta klotho / human FGFR1c receptor complex on cells (cynomolgus monkey (Macaca …)) (chain, as listed by the source limits assumed, chain 1 of 2): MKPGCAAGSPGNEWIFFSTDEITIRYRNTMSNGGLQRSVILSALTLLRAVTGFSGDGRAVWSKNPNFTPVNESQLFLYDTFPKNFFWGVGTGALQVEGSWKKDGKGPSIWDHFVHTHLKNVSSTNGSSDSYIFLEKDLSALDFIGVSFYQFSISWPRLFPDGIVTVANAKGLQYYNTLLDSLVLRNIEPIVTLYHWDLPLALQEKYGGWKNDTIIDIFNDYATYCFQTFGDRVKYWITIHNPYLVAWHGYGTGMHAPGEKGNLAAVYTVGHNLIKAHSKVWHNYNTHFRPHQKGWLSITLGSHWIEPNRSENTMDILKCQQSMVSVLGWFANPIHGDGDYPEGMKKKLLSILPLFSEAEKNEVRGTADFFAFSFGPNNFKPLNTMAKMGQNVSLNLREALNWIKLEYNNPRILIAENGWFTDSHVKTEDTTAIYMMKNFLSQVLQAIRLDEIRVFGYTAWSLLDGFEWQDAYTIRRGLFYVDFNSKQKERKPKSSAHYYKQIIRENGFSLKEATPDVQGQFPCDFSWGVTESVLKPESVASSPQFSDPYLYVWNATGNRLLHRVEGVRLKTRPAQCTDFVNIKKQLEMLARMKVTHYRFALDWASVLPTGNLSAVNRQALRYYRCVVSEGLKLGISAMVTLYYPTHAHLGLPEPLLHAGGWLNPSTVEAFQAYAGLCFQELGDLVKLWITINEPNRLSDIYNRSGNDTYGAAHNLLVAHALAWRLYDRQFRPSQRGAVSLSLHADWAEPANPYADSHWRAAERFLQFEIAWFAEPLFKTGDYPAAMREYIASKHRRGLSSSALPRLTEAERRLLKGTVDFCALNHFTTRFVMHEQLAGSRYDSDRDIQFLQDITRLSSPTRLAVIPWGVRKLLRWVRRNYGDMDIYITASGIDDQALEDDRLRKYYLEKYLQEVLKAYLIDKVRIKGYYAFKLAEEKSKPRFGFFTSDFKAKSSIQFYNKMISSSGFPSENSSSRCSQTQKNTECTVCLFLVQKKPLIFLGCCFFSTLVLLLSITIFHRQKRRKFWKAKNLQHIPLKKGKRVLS
Chain of cynomolgus beta klotho / human FGFR1c receptor complex on cells (cynomolgus monkey (Macaca …)) (chain, as listed by the source limits assumed, chain 2 of 2): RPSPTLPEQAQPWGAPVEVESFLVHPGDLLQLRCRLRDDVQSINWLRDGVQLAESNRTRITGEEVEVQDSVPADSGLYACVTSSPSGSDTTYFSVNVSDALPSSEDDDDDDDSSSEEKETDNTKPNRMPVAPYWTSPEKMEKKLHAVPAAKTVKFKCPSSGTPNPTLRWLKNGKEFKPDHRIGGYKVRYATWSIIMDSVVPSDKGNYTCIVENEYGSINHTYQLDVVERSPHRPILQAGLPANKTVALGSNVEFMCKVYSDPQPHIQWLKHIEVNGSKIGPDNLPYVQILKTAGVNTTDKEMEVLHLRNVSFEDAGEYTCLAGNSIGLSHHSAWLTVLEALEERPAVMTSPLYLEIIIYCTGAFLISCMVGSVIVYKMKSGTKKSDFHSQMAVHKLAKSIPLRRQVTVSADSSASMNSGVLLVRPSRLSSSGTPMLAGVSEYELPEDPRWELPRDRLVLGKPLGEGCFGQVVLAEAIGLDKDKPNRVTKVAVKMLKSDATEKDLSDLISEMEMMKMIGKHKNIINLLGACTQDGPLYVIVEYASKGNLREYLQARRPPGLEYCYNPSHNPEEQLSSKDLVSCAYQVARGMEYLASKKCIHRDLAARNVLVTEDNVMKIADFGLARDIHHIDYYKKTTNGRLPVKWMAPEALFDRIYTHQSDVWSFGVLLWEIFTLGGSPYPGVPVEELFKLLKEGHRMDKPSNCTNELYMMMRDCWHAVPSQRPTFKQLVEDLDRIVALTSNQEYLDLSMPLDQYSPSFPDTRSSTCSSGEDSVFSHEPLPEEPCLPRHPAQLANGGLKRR

Binder | Mean Florescence Intensity (MFI) [1] | HEK293 cynoKLB/R1c reporter assay EC50, Experiment - A [2] | HEK293 cynoKLB/R1c reporter assay EC50, Experiment - B [2] | hAdip pERK assay EC50, Experiment - B [3] | Kd [4]
antibody 1C17 (antibody, V domains shown, Murine monoclonal antibody) VH: QVQLQESGPGLVKPSQSLSLTCSVTGYSITSGYYWNWIRQFPGNKLEWMGYINYDGNSNYTPSLKNRISITRDTSKNQFFLKLNSVTPEDTATYYCARKGAYYSNYDSFDVWGTGTTVTVSS VL: DIKMTQSPSSMYASLGERVTITCKASQDINSYLSWVQQKPGKSPKTLIYRANRLVDGVPSRFSGSGSGQDYSLTISSLEYEDMGIYYCLQYDEFPFTFGSGTKLEIK | 26.7 MFI |  |  | > 67 nM | 3.1 nM
antibody 5F7 (antibody, V domains shown, Murine monoclonal antibody) VH: QVQPQESGPELVKPGALVKISCKASGYTFTRYDINWVKQRPGQGLEWIGWIYPGDISTKYNEKFKGKATLTADKSSSTAYMQLNSLTSENSAVYFCARSDYYGSRSFVYWGQGTLVTVSA VL: DIVLTQSPASLAVSLGQRATISCRASKSVSTSGYSYMHWYQQKPGQPPKLLIYLASNLESGVPARFSGSGSGTDFTLNIHPVEEEDAATYYCQHSRELPYTFGGGTKVEIK | 28.5 MFI |  |  | > 67 nM | 2.5 nM
antibody 1D19 (antibody, V domains shown, Murine monoclonal antibody) VH: QVQPQESGPELVKPGALVKISCKASGYTFTRYDINWMKQRPGQGLEWIGWIYPGDSSTKFNENFKDKATLTADKSSSTAYMQLSSLTSENSTVYFCARSDYYGSRSFTYWGQGTLVTVSA VL: DIVLTQSPASLAVSLGQRATISCRASKSVSTSGYSYMHWYQQKPGQPPKLLIYLASNLESGVPARFSGSGSGTDFTLNIHPVEEEDAATYYCQHSRELPYTFGGGTKLEIK | 30.6 MFI |  | 0.954 nM | > 67 nM | 2.9 nM
antibody 3L3 (antibody, V domains shown, Murine monoclonal antibody) VH: QVQPQESGPELVKPGTLVKISCKASGYTFTSYDINWVKQRPGQGLEWIGWIYPGDGSPKYDEKFKGKATLTADKSSSTAYMQLSSLTSENSAVYFCARSDYYGSRSFVYWGQGTLVTVSA VL: DIVLTQSPASLAVSLGQRATISCRASKSVSTSGYSYVHWYQQKPGQPPKLLIYLASNLESGVPARFSGRGSGTDFTLNIHPVEEEDAATYYCQHSGELPYTFGGGTKLEIK | 28.7 MFI | 3.58 nM | 1.67 nM | ~30 nM | 2.2 nM
antibody 2L12 (antibody, V domains shown, Murine monoclonal antibody) VH: QVQLQQSGPELVKPGALVKISCKASGYTFTRYDINWVKKRPGQGLEWIGWIYPGDDSTKYNEKFKGKATLTADKSSSTAYMQLSSLTSENSAVYFCARSDYYGSRSFVYWGQGTLVTVSA VL: DIVLTQSPASLPVSLGQRATISCRASKSVSTSGYSYLHWYQQKPGQPPKLLIYLASNLESGVPARFSGSGSGTDFTLNIHPVEEEDAATYYCQHSGELPYTFGGGTKLEIK | 30.9 MFI | 0.26 nM | 0.41 nM | 1.23 nM | 1.42 nM

Results, then the binder that gave them:

Mean Florescence Intensity (MFI) [1] | HEK293 cynoKLB/R1c reporter assay EC50, Experiment - A [2] | HEK293 cynoKLB/R1c reporter assay EC50, Experiment - B [2] | hAdip pERK assay EC50, Experiment - B [3] | Kd [4] | Binder
30.5 MFI | 2.46 nM | > 10 nM | > 67 nM | 3.52 nM | antibody 3N20 (antibody, V domains shown, Murine monoclonal antibody) VH: QVQLQESGAELARPGASVKLSCKVSGYIFTNYGISWVKQRTGQGLEWIGEIYPRSGNTYYNEKFKGKATLTADMSSSTAYMDLRSLTSEDSAVYFCARHWDGVLDYFDYWGQGTSLTVSS VL: DIVMTQSPSSLSVSAGEKVTMSCKSSQSLLNSGNQKNYLAWYQQKPGQPPKLLIYGASTRESGVPDRFTGSGSGTDFTLTISSVQAEDLAVYYCLNDHSYPFTFGAGTKLELK
29.8 MFI | 0.165 nM | 0.218 nM | 1.66 nM | 0.72 nM | antibody 5H23 (antibody, V domains shown, Murine monoclonal antibody from hybridoma; also called 5H23-Alexa647 (labelled form)) VH: QVQLQQSGPELVKPGALVKISCKASGYTFTSYDINWVKQRPGQGLEWIGWIYPGDGSTKYNEKFKGKATLTADKSSRTAYMQLSSLTSENSAVYFCARSDYYGSRSFAYWGQGTLVTVSA VL: DIVLTQSPASLAVSLGQRATISCRASKSVSTSGYVYMHWNQQKPGQPPKLLIYLASYLESGVPARFSGSGSGTDFTLNIHPVEEEDAAIYYCQHSRDLTFPFGGGTKLEIK
29.3 MFI |  |  | > 67 nM | 2.4 nM | antibody 5C23 (antibody, V domains shown, Murine monoclonal antibody) VH: QVQPQESGPELVKPGALVKISCKASGYTFTRYDINWVKKRPGQGLEWIGWIYPGDGSTKYNEKFEGKATLTADKSSSTAYMQLSSLTSENSAVYFCARSDYYGSRSFVYWGQGTLVTVSA VL: DIVLTQSPDSLTVSLGQRATISCRASKSVSTSGYSYMHWYQQKPGQPPKLLIYLASNLESGVPARFSGSGSGTDFTLNIHPVEEEDAATYYCQHSRELPYTFGGGTKLEIK
30.1 MFI | 0.347 nM | 0.465 nM | 0.89 nM | 0.44 nM | antibody 4P5 (antibody, V domains shown, Murine monoclonal antibody) VH: QVQLQQSGPELVKPGALVKISCKASGYTFTRYDINWVKKRPGQGLEWIGWIYPGDDSTKYNEKFKGKATLTADKSSSTAYMQLSSLTSENSAVYFCARSDYYGSRSFVYWGQGTLVTVSA VL: DILLTQSPASLAVSLGQRATISCRASKSVSTSGYSYMHWYQQKPGQPPKLLIYLASNLESGVPARFSGRGSGTDFTLNIHPVEEEDAATYYCHHSGELPYTFGGGTKLEIK
